# From patent US20120177571A1, “PANCREATIC ENDOCRINE CELL INDICATING AGENT AND UTILIZATION OF SAME” (RIKEN, priority 2009, published 2012)
# System: pancreatic beta cells
# Details: in vivo, 70 mg/kg
# Method: 70 mg of Streptozotocin (STZ), which is selectively toxic to the pancreatic beta cells, was intraperitoneally administered to a rat per kilogram of the weight of the rat. Thus, a diabetic rat whose pancreatic beta cells were damaged was prepared. Next, ^68Ga-DOTA-octreotide (PET probe) was intravenously administered to the model rat in accordance with the method in Example 1. Next, in accordance with the method in Example 1, the abdomen of the model rat was scanned with the use of a PET and image reconstruction was performed. […] Further, as in Example 1, organs etc. were removed from the model rat after the scan, and radioactivity in each of the organs etc. was quantified.
smiles,measurement,value
"C[C@@H](O)[C@@H]1NC(=O)[C@H](CCCCN)NC(=O)[C@@H](Cc2c[nH]c3ccccc23)NC(=O)[C@H](Cc2ccccc2)NC(=O)[C@@H](NC(=O)[C@@H](Cc2ccccc2)NC(=O)CN2CCN(CC(=O)O)CCN(CC(=O)O)CCN(CC(=O)O)CC2)CSSC[C@@H](C(=O)N[C@H](CO)[C@@H](C)O)NC1=O [^68Ga-DOTA-octreotide, metal not drawn]","accumulation of the PET probe in kidney and liver (PET image), diabetic model rat",observed
